Test results reported in article PMC5805628.

Biological target: EGFR co-transfected into Q293 cells (UniProt P00533)
Experiment: co-IP

| amount in the anti-EGFR immunoprecipitate, normalized to wild type TROY | Substance |
| --- | --- |
| 0.43 | TROY CRD2 (from UniProt Q9NS68 30-423) (receptor) |
| 0.83 | TROY CRD3 (from UniProt Q9NS68 30-423) (receptor) |
